Assay results published in patent US20240400654A1.
Several values for one entry are separate records, joined by “and”; a condition that tells them apart may be missing. Equal values may be shown once.

molecular target: HRgpA-6H (Porphyromonas gingivalis) (UniProt P28784); assay: ELISA, coated HRgpA-6H
UniProt P28784, sequence (P28784 228-860 limits assumed): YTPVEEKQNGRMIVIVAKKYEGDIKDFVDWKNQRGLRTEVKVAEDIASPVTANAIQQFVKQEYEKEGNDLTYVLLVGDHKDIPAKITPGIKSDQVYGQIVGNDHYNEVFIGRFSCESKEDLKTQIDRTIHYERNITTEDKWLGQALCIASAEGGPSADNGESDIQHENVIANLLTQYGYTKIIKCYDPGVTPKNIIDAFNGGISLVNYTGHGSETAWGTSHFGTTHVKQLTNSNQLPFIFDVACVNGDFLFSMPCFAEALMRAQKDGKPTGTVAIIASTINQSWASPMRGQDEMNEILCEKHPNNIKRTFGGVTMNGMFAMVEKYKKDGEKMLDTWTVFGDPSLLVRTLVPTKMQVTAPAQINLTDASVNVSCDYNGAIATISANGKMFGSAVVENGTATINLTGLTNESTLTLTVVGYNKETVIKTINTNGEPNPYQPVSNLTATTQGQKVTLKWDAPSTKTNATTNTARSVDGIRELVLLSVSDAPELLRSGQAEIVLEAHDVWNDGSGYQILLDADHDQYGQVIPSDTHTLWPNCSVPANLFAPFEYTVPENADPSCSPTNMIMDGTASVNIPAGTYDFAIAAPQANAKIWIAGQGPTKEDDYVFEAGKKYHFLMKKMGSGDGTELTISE

| Binder | OD450 nm | Ratio OD(Variant)/OD(WT) |
| --- | --- | --- |
| KB001 mouse Fab VH S56T (Fab, V domains shown) VH: EVQLKQSGPGLVAPSQSLSITCTVSGFSLSIYSVHWVRQPPGKGLEWLGMIWGGGTSDYNSALKSRLSISKDNSKSQVFLKMNSLQTDDTAMYYCARNGNFYAMDYWGQGTSVTVSS VL: QIVLTQSPAIMSASLGERVTMTCTASSSVSSSFLHWYQQKPGSSPQLWIYSTSNLASGVPARFSGSGSGTSYSLTISSMEAEDAATYYCHQYHHSPYIYTFGGGTKLEIK | 0.838 and 0.844 and 0.853 | 0.953 and 0.96 and 0.97 |
| KB001 mouse Fab VH S56L (Fab, V domains shown) VH: EVQLKQSGPGLVAPSQSLSITCTVSGFSLSIYSVHWVRQPPGKGLEWLGMIWGGGLSDYNSALKSRLSISKDNSKSQVFLKMNSLQTDDTAMYYCARNGNFYAMDYWGQGTSVTVSS VL: QIVLTQSPAIMSASLGERVTMTCTASSSVSSSFLHWYQQKPGSSPQLWIYSTSNLASGVPARFSGSGSGTSYSLTISSMEAEDAATYYCHQYHHSPYIYTFGGGTKLEIK | 0.71 | 0.807 |
| KB001 mouse Fab VH S56M (Fab, V domains shown) VH: EVQLKQSGPGLVAPSQSLSITCTVSGFSLSIYSVHWVRQPPGKGLEWLGMIWGGGMSDYNSALKSRLSISKDNSKSQVFLKMNSLQTDDTAMYYCARNGNFYAMDYWGQGTSVTVSS VL: QIVLTQSPAIMSASLGERVTMTCTASSSVSSSFLHWYQQKPGSSPQLWIYSTSNLASGVPARFSGSGSGTSYSLTISSMEAEDAATYYCHQYHHSPYIYTFGGGTKLEIK | 0.809 | 0.92 |
| KB001 mouse Fab VH Y59R (Fab, V domains shown) VH: EVQLKQSGPGLVAPSQSLSITCTVSGFSLSIYSVHWVRQPPGKGLEWLGMIWGGGSSDRNSALKSRLSISKDNSKSQVFLKMNSLQTDDTAMYYCARNGNFYAMDYWGQGTSVTVSS VL: QIVLTQSPAIMSASLGERVTMTCTASSSVSSSFLHWYQQKPGSSPQLWIYSTSNLASGVPARFSGSGSGTSYSLTISSMEAEDAATYYCHQYHHSPYIYTFGGGTKLEIK | 0.633 | 0.8 |
| KB001 mouse Fab VH S57R (Fab, V domains shown) VH: EVQLKQSGPGLVAPSQSLSITCTVSGFSLSIYSVHWVRQPPGKGLEWLGMIWGGGSRDYNSALKSRLSISKDNSKSQVFLKMNSLQTDDTAMYYCARNGNFYAMDYWGQGTSVTVSS VL: QIVLTQSPAIMSASLGERVTMTCTASSSVSSSFLHWYQQKPGSSPQLWIYSTSNLASGVPARFSGSGSGTSYSLTISSMEAEDAATYYCHQYHHSPYIYTFGGGTKLEIK | 0.796 | 0.905 |
| KB001 mouse Fab VH Y59M/S57I (Fab, V domains shown) VH: EVQLKQSGPGLVAPSQSLSITCTVSGFSLSIYSVHWVRQPPGKGLEWLGMIWGGGSIDMNSALKSRLSISKDNSKSQVFLKMNSLQTDDTAMYYCARNGNFYAMDYWGQGTSVTVSS VL: QIVLTQSPAIMSASLGERVTMTCTASSSVSSSFLHWYQQKPGSSPQLWIYSTSNLASGVPARFSGSGSGTSYSLTISSMEAEDAATYYCHQYHHSPYIYTFGGGTKLEIK | 0.701 | 0.886 |
| KB001 mouse Fab VH N60Q (Fab, V domains shown) VH: EVQLKQSGPGLVAPSQSLSITCTVSGFSLSIYSVHWVRQPPGKGLEWLGMIWGGGSSDYQSALKSRLSISKDNSKSQVFLKMNSLQTDDTAMYYCARNGNFYAMDYWGQGTSVTVSS VL: QIVLTQSPAIMSASLGERVTMTCTASSSVSSSFLHWYQQKPGSSPQLWIYSTSNLASGVPARFSGSGSGTSYSLTISSMEAEDAATYYCHQYHHSPYIYTFGGGTKLEIK | 0.447 and 0.402 | 0.906 and 0.815 |
| KB001 mouse Fab VH S57M (Fab, V domains shown) VH: EVQLKQSGPGLVAPSQSLSITCTVSGFSLSIYSVHWVRQPPGKGLEWLGMIWGGGSMDYNSALKSRLSISKDNSKSQVFLKMNSLQTDDTAMYYCARNGNFYAMDYWGQGTSVTVSS VL: QIVLTQSPAIMSASLGERVTMTCTASSSVSSSFLHWYQQKPGSSPQLWIYSTSNLASGVPARFSGSGSGTSYSLTISSMEAEDAATYYCHQYHHSPYIYTFGGGTKLEIK | 0.748 | 0.85 |
| KB001 mouse Fab VH N60P (Fab, V domains shown) VH: EVQLKQSGPGLVAPSQSLSITCTVSGFSLSIYSVHWVRQPPGKGLEWLGMIWGGGSSDYPSALKSRLSISKDNSKSQVFLKMNSLQTDDTAMYYCARNGNFYAMDYWGQGTSVTVSS VL: QIVLTQSPAIMSASLGERVTMTCTASSSVSSSFLHWYQQKPGSSPQLWIYSTSNLASGVPARFSGSGSGTSYSLTISSMEAEDAATYYCHQYHHSPYIYTFGGGTKLEIK | 0.44 and 0.428 | 0.892 and 0.867 |
| KB001 mouse Fab VH Y59K (Fab, V domains shown) VH: EVQLKQSGPGLVAPSQSLSITCTVSGFSLSIYSVHWVRQPPGKGLEWLGMIWGGGSSDKNSALKSRLSISKDNSKSQVFLKMNSLQTDDTAMYYCARNGNFYAMDYWGQGTSVTVSS VL: QIVLTQSPAIMSASLGERVTMTCTASSSVSSSFLHWYQQKPGSSPQLWIYSTSNLASGVPARFSGSGSGTSYSLTISSMEAEDAATYYCHQYHHSPYIYTFGGGTKLEIK | 0.648 | 0.819 |
| KB001 mouse Fab VH N60T (Fab, V domains shown) VH: EVQLKQSGPGLVAPSQSLSITCTVSGFSLSIYSVHWVRQPPGKGLEWLGMIWGGGSSDYTSALKSRLSISKDNSKSQVFLKMNSLQTDDTAMYYCARNGNFYAMDYWGQGTSVTVSS VL: QIVLTQSPAIMSASLGERVTMTCTASSSVSSSFLHWYQQKPGSSPQLWIYSTSNLASGVPARFSGSGSGTSYSLTISSMEAEDAATYYCHQYHHSPYIYTFGGGTKLEIK | 0.406 | 0.823 |
| KB001 mouse Fab VH S57T (Fab, V domains shown) VH: EVQLKQSGPGLVAPSQSLSITCTVSGFSLSIYSVHWVRQPPGKGLEWLGMIWGGGSTDYNSALKSRLSISKDNSKSQVFLKMNSLQTDDTAMYYCARNGNFYAMDYWGQGTSVTVSS VL: QIVLTQSPAIMSASLGERVTMTCTASSSVSSSFLHWYQQKPGSSPQLWIYSTSNLASGVPARFSGSGSGTSYSLTISSMEAEDAATYYCHQYHHSPYIYTFGGGTKLEIK | 0.843 and 0.849 | 0.958 and 0.965 |
| KB001 mouse Fab VH D58S (Fab, V domains shown) VH: EVQLKQSGPGLVAPSQSLSITCTVSGFSLSIYSVHWVRQPPGKGLEWLGMIWGGGSSSYNSALKSRLSISKDNSKSQVFLKMNSLQTDDTAMYYCARNGNFYAMDYWGQGTSVTVSS VL: QIVLTQSPAIMSASLGERVTMTCTASSSVSSSFLHWYQQKPGSSPQLWIYSTSNLASGVPARFSGSGSGTSYSLTISSMEAEDAATYYCHQYHHSPYIYTFGGGTKLEIK | 0.646 | 0.817 |
| KB001 mouse Fab VH S61W (Fab, V domains shown) VH: EVQLKQSGPGLVAPSQSLSITCTVSGFSLSIYSVHWVRQPPGKGLEWLGMIWGGGSSDYNWALKSRLSISKDNSKSQVFLKMNSLQTDDTAMYYCARNGNFYAMDYWGQGTSVTVSS VL: QIVLTQSPAIMSASLGERVTMTCTASSSVSSSFLHWYQQKPGSSPQLWIYSTSNLASGVPARFSGSGSGTSYSLTISSMEAEDAATYYCHQYHHSPYIYTFGGGTKLEIK | 0.435 and 0.429 | 0.881 and 0.869 |
| KB001 mouse Fab VH N60S (Fab, V domains shown) VH: EVQLKQSGPGLVAPSQSLSITCTVSGFSLSIYSVHWVRQPPGKGLEWLGMIWGGGSSDYSSALKSRLSISKDNSKSQVFLKMNSLQTDDTAMYYCARNGNFYAMDYWGQGTSVTVSS VL: QIVLTQSPAIMSASLGERVTMTCTASSSVSSSFLHWYQQKPGSSPQLWIYSTSNLASGVPARFSGSGSGTSYSLTISSMEAEDAATYYCHQYHHSPYIYTFGGGTKLEIK | 0.452 | 0.916 |
| KB001 mouse Fab VH D58G (Fab, V domains shown) VH: EVQLKQSGPGLVAPSQSLSITCTVSGFSLSIYSVHWVRQPPGKGLEWLGMIWGGGSSGYNSALKSRLSISKDNSKSQVFLKMNSLQTDDTAMYYCARNGNFYAMDYWGQGTSVTVSS VL: QIVLTQSPAIMSASLGERVTMTCTASSSVSSSFLHWYQQKPGSSPQLWIYSTSNLASGVPARFSGSGSGTSYSLTISSMEAEDAATYYCHQYHHSPYIYTFGGGTKLEIK | 0.778 | 0.984 |
| KB001 mouse Fab VH Y59F (Fab, V domains shown) VH: EVQLKQSGPGLVAPSQSLSITCTVSGFSLSIYSVHWVRQPPGKGLEWLGMIWGGGSSDFNSALKSRLSISKDNSKSQVFLKMNSLQTDDTAMYYCARNGNFYAMDYWGQGTSVTVSS VL: QIVLTQSPAIMSASLGERVTMTCTASSSVSSSFLHWYQQKPGSSPQLWIYSTSNLASGVPARFSGSGSGTSYSLTISSMEAEDAATYYCHQYHHSPYIYTFGGGTKLEIK | 0.668 | 0.845 |
| KB001 mouse Fab VH S56E (Fab, V domains shown) VH: EVQLKQSGPGLVAPSQSLSITCTVSGFSLSIYSVHWVRQPPGKGLEWLGMIWGGGESDYNSALKSRLSISKDNSKSQVFLKMNSLQTDDTAMYYCARNGNFYAMDYWGQGTSVTVSS VL: QIVLTQSPAIMSASLGERVTMTCTASSSVSSSFLHWYQQKPGSSPQLWIYSTSNLASGVPARFSGSGSGTSYSLTISSMEAEDAATYYCHQYHHSPYIYTFGGGTKLEIK | 0.772 and 0.713 | 0.878 and 0.811 |
| KB001 mouse Fab VH S56N (Fab, V domains shown) VH: EVQLKQSGPGLVAPSQSLSITCTVSGFSLSIYSVHWVRQPPGKGLEWLGMIWGGGNSDYNSALKSRLSISKDNSKSQVFLKMNSLQTDDTAMYYCARNGNFYAMDYWGQGTSVTVSS VL: QIVLTQSPAIMSASLGERVTMTCTASSSVSSSFLHWYQQKPGSSPQLWIYSTSNLASGVPARFSGSGSGTSYSLTISSMEAEDAATYYCHQYHHSPYIYTFGGGTKLEIK | 0.759 and 0.743 | 0.863 and 0.845 |
| KB001 mouse Fab VH Y59T (Fab, V domains shown) VH: EVQLKQSGPGLVAPSQSLSITCTVSGFSLSIYSVHWVRQPPGKGLEWLGMIWGGGSSDTNSALKSRLSISKDNSKSQVFLKMNSLQTDDTAMYYCARNGNFYAMDYWGQGTSVTVSS VL: QIVLTQSPAIMSASLGERVTMTCTASSSVSSSFLHWYQQKPGSSPQLWIYSTSNLASGVPARFSGSGSGTSYSLTISSMEAEDAATYYCHQYHHSPYIYTFGGGTKLEIK | 0.744 | 0.941 |
| KB001 mouse Fab VH S57H (Fab, V domains shown) VH: EVQLKQSGPGLVAPSQSLSITCTVSGFSLSIYSVHWVRQPPGKGLEWLGMIWGGGSHDYNSALKSRLSISKDNSKSQVFLKMNSLQTDDTAMYYCARNGNFYAMDYWGQGTSVTVSS VL: QIVLTQSPAIMSASLGERVTMTCTASSSVSSSFLHWYQQKPGSSPQLWIYSTSNLASGVPARFSGSGSGTSYSLTISSMEAEDAATYYCHQYHHSPYIYTFGGGTKLEIK | 0.8 | 0.91 |
